This is an account of results in the RNAGym collection of RNA variant scans (doi:10.7554/elife.80360).

B1: Hairpin Ribozyme (parent)
chain: GUCCUCUUUCACGUGCGCGUGAAAGAGAGAAGUGAACCAGAGAAACACACGUUGUGGUAUAUUACCUGGUA

In the data set the parent is B1. Kind of data set: self-cleavage, relative activity (ratio to wild type); higher = more cleavage; co-transcriptional.
As for GUCCUCUUUCACGUGCGCGUGAAAGAGAGAAGUGAACCAGAGAAACACACGUUGUGGUAGAUUAUCUGGUA [U60G C65U], the self-cleavage was found to be 0.183.

Consider GUCCUCUUUCACGUGCGCGUGAAAGAGAGAAGUGGACCAGAGAAACACACGUUGUGGUAUAUUACCUGGAA [A35G U70A], for which the self-cleavage is 0.927.

Take GUCCUCUUGCAUGUGCGCGUGAAAGAGAGAAGUGAACCAGAGAAACACACGUUGUGGUAUAUUACCUGGUA [U9G C12U]: the self-cleavage amounted to 0.664.

Turning to GUCCUCUUUCACGUGCGCGUGAAAGAGAGAAGCGAACCAGAGAAACACACGUUGUGGUAUAUUACCUGGUU [U33C A71U], the self-cleavage is 0.144.

GUCCUCUUUCACGUGUGCGUGAAAGAGAGAAGUGAACCAGAGAAACACACGUUGUGGUAUUUUACCUGGUA [C16U A61U]: the self-cleavage stood at 0.256.

Turning to GUCCACUUUCACGUGCGCGUGAAACAGAGAAGUGAACCAGAGAAACACACGUUGUGGUAUAUUACCUGGUA [U5A G25C], the self-cleavage worked out at 0.162.

As for GUCCUCUUUCACGUGCGCGUGAUAGAGAGAAGUAAACCAGAGAAACACACGUUGUGGUAUAUUACCUGGUA [A23U G34A], the self-cleavage was found to be 0.956.

For the variant GUCCUCUUUCACGUGCGCGGGAAAGAGAGAAGUGCACCAGAGAAACACACGUUGUGGUAUAUUACCUGGUA [U20G A35C], the self-cleavage was found to be 0.976.

Consider GUCCUCUUUCACGUGCGCGUGAAAGAGAGAAGGGAACCAGAGAAACACACGUUGUGGUAUACUACCUGGUA [U33G U62C], for which the self-cleavage was determined as 0.0629.

As for GUCCUCUUCCACGUGCGCGUGAAAGAGAGAAGUGCACCAGAGAAACACACGUUGUGGUAUAUUACCUGGUA [U9C A35C], the self-cleavage turned out to be 0.602.

For the variant GUCCUCUUUCACGUGCGCGUGGAAGAGAGAACUGAACCAGAGAAACACACGUUGUGGUAUAUUACCUGGUA [A22G G32C], the self-cleavage amounted to 0.0859.

For the variant GUCCUCUUUCAUGUGCGCGAGAAAGAGAGAAGUGAACCAGAGAAACACACGUUGUGGUAUAUUACCUGGUA [C12U U20A], the self-cleavage worked out at 0.695.

As for GUCCUCCUUCACGUGCGCGUGAAAGAGAGAAGUGAACCAGCGAAACACACGUUGUGGUAUAUUACCUGGUA [U7C A41C], the self-cleavage was 1.01.

For the variant AUCCUCUUUCACGUGCGCGUGAAAGAGAGAAGUGAACCAGAGAACCACACGUUGUGGUAUAUUACCUGGUA [G1A A45C], the self-cleavage was 0.0307.

As to GUCCUCUUUCACGUGCGCGUGAAAGAGAGAAGUGAACCAGAUAAACACAUGUUGUGGUAUAUUACCUGGUA [G42U C50U], the self-cleavage came to 0.197.

As to GUCCUCCUUCACGUGCGCGUGAAAGAGAGAACUGAACCAGAGAAACACACGUUGUGGUAUAUUACCUGGUA [U7C G32C], the self-cleavage stood at 0.141.

On to GUCCUCUUUCAAGUGCGCGUGAAAGAGACAAGUGAACCAGAGAAACACACGUUGUGGUAUAUUACCUGGUA [C12A G29C], for which the self-cleavage was 0.0897.

Take GUCCUCUUUAACGUGCGCGUGAAAGAGAGAAGUGAACCAGAGAAACACACGUUGUGCUAUAUUACCUGGUA [C10A G57C]: the self-cleavage is 0.174.

For GUCCUCUUUCACGUGCGCGUGAAAGAGAGAAGUGAACCAGAGAAACAAAGGUUGUGGUAUAUUACCUGGUA [C48A C50G], the self-cleavage turned out to be 0.0517.

As for GCCCUCUUUCACGUGCGCGUGAAAGAGAGAAGUGAACCAGAGAAACAGACGUUGUGGUAUAUUACCUGGUA [U2C C48G], the self-cleavage turned out to be 0.108.

For GUCCUCUUUCACGUGCGCGUGAAAGAGAGAAGUGAACCAAAGAAACACACCUUGUGGUAUAUUACCUGGUA [G40A G51C], the self-cleavage worked out at 0.238.

Take GUCCUCUUUCACGUACGCGUGAAAGAGAGAAGUGAACCAGAGAAACACACGUUGUGGUAUAUUACCUCGUA [G15A G68C]: the self-cleavage amounted to 0.219.

With GUCCUCUUUCACGUGCGCGUGAAAGUGAGAAGUGAACCAGAGAAACACACGUUGUGGUAUAUUACGUGGUA [A26U C66G], the self-cleavage worked out at 0.16.

On to GUCCUCUUUCACGUGCGCGUGAAAGAUAGAAGUGAACCAGAGAAACACACGUUGUGGUAUUUUACCUGGUA [G27U A61U], for which the self-cleavage worked out at 0.107.

As to GUCCUCUUUCACGUGUGCUUGAAAGAGAGAAGUGAACCAGAGAAACACACGUUGUGGUAUAUUACCUGGUA [C16U G19U], the self-cleavage came out at 0.661.

On to GUCCUCUUUCACGUGCGCGUGAAAGAGAGGAGUGAACCAGAGAAACACACGUUGUGGUGUAUUACCUGGUA [A30G A59G], for which the self-cleavage was found to be 0.311.

With GUCCUCUUUCACGUGCGCGUGAAAGAGAGAGGUGAACCAGAGAAGCACACGUUGUGGUAUAUUACCUGGUA [A31G A45G], the self-cleavage worked out at 0.0922.

GUCCUCUUUCACGUGCGCGUGAAAGAGAGAAGUGAACCAGAGAAACACACGUGGUGGUAUAUUACCUGUUA [U53G G69U]: the self-cleavage came out at 0.279.

Consider GUCCUCGUUCACGUGCGCGUGUAAGAGAGAAGUGAACCAGAGAAACACACGUUGUGGUAUAUUACCUGGUA [U7G A22U], for which the self-cleavage was 0.59.

As to GUCCUCUUUCACGUGCGCGUGAAAGAGAGAGGUGAACCAGCGAAACACACGUUGUGGUAUAUUACCUGGUA [A31G A41C], the self-cleavage was determined as 1.2.

Regarding UUCCUCUUUCACGUGCGCGUGAAAGAGAGAAGUGAACCAGAGAAAGACACGUUGUGGUAUAUUACCUGGUA [G1U C46G], the self-cleavage came out at 0.16.

GUCCUCUUUCACGUGCGCGUGAAAGAGAGAAGUGAACCAGAGAUACGCACGUUGUGGUAUAUUACCUGGUA [A44U A47G]: the self-cleavage came out at 0.0154.

For GUCCUCUUUCACGGGCGCGUGAAAGAGAGAAGUGAACCAGAGAAACACACUUUGUGGUAUAUUACCUGGUA [U14G G51U], the self-cleavage stood at 1.02.

As for GUCCUCUUUCACGUGCGCGUGAAAGAGAGAACUGAACCAAAGAAACACACGUUGUGGUAUAUUACCUGGUA [G32C G40A], the self-cleavage is 0.164.

Consider GUCCUCUUUCACCUGCGCGUGAAAGAGAGAAGUGAACCAGAGAAACACACGUUGUGGUAUAUUACCUCGUA [G13C G68C], for which the self-cleavage was 0.151.

Regarding GUCCUCUUUCACGAGCGCGUGAAAGAGAAAAGUGAACCAGAGAAACACACGUUGUGGUAUAUUACCUGGUA [U14A G29A], the self-cleavage came to 0.227.

Consider GUCCUCUUUCACGUGCGCGUGAAAGAGAGAAGUGCACCAGAGAAACACACGUUGUGGUAUAUUAGCUGGUA [A35C C65G], for which the self-cleavage was determined as 0.387.

Regarding GUCCUCUUUCACGUGCGCGUGAAGGAGAGAAGUGAACCAGAGAAACACACGUUGGGGUAUAUUACCUGGUA [A24G U55G], the self-cleavage was found to be 0.193.
